Measured values published in patent US6610479.

Key:
[1] = biological target: human serum albumin (HSA) (UniProt P02768)
[2] = biological target: streptavidin (on Dynabeads) (UniProt P22629)
[3] = biological target: human IgG (on Sepharose, Pharmacia) (human); assay: cell-based or functional assay

Chain of UniProt P22629 (P22629 whole entry, looked up): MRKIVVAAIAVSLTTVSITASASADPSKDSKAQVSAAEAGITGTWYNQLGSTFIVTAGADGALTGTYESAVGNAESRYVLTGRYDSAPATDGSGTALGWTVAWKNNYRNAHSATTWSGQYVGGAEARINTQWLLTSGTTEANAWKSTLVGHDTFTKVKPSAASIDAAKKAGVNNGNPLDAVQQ

| Substance | hot start PCR of K-ras (primer-dimer formation) [1] | hot-start effect in kRAS PCR (primer-dimer formation) [1] | primer extension (190 nt product) at 60° C., immobilized enzyme [1] | relative polymerase activity at 45-75° C. and after 95° C. [1] | hot-start effect in kRAS PCR (primer-dimer formation) [2] | Peak area of the 190-bp extension product, heat-released enzyme (95° C.-treated Z-ΔTaq-human IgG-Sepharose) [3] | Peak area of the 190-bp extension product, immobilized enzyme (polymerase activity at 50° C.) [3] | increase of the area of the 190-peak, free or heat-released enzyme against enzyme on beads heated only to 50° C. [3] [times] |
| --- | --- | --- | --- | --- | --- | --- | --- | --- |
| TagTaq fusion protein (Bio-His6-ABP fused to Taq DNA polymerase I residues 3-832) | using either a conventional hot start procedure (lane 8) or immobilized TagTaq polymerase (lanes 1 to 3), high yields of essentially pure, full-length PCR products free from primer-dimers are obtained | All the immobilised enzymes show hot-start effect in PCR with regard to preventing primer-dimer formation | TagTaq protein: HSA-Sepharose incubated with the substrate at the same temperature resulted in only very small amounts of the 190 nt extension product | TagTaq indeed is active in the presence of HSA-Sepharose, but only after incubation at a temperature high enough to break the ABP-HSA affinity interaction | All the immobilised enzymes show hot-start effect in PCR with regard to preventing primer-dimer formation |  |  |  |
| Z-ΔTaq fusion protein (from UniProt P0AD92 1-8; P38507 212-269; P19821 236-832) (enzyme) |  |  |  |  |  | 8380 | 594 | > 15 |
